From patent US20040219131A1 (MAXYGEN, published 2004) come the findings set out here.

The target of test [1] is T1, interferon-alpha receptor (human, UniProt P17181 28-557; P48551 27-515).
T1 sequence (looked up) 1: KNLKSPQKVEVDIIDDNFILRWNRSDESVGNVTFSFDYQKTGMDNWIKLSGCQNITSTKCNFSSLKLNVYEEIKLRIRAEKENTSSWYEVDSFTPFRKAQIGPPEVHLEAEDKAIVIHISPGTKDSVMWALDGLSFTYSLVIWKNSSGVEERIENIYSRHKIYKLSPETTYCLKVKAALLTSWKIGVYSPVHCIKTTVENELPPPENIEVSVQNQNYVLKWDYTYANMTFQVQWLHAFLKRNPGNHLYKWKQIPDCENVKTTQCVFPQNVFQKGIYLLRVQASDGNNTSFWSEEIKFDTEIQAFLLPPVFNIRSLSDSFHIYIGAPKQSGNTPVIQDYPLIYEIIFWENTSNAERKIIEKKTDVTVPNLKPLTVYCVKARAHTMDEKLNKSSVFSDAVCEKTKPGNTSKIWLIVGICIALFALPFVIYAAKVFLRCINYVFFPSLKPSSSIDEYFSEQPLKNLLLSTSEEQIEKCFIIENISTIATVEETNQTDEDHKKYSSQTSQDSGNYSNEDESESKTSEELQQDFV
T1 sequence (looked up) 2: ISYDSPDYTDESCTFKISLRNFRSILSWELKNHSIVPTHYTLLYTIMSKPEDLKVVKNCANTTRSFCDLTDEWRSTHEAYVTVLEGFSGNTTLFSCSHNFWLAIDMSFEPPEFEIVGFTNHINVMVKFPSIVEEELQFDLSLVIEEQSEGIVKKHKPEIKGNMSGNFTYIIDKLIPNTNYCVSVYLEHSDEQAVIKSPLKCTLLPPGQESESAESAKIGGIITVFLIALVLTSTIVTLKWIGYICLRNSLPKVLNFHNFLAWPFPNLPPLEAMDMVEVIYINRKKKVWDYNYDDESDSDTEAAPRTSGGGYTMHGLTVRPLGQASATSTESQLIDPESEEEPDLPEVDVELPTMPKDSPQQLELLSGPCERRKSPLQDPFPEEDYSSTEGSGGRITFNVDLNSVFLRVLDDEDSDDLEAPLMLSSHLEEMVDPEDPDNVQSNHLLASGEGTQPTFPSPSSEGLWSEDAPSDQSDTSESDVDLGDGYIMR
The test is described as follows: cell-based or functional assay.

For test [2], the target named is T1, interferon-alpha receptor. Briefly: cell-based or functional assay. The source holds these as a separate data set.

B1: 25Ep05 (ligand)
chain: CDLPQTHSLSNRRTLMLMAQMRRISPFSCLKDRHDFGFPEEEFDGHQFQKTQAISVLHELIQQTFNLFSTKDSSAAWDETLLEKFYIELFQQMNDLEACVIQEVGVEEIALMNVDSILAVRKYFRRITLYLTEKKYSPCAWEVVRAEIMRSFSLSTNLQESLRSKE
Consider B1, for which the “Antiviral activity relative to huIFNα-2b (EC50 huIFN-alpha 2b/EC50 sample), EMCV/HuH-7 assay” value in test [1] is ≥ 2.5 fold relative to huIFNα-2b.

B2: B9x14 (ligand)
chain: CDLPQTHSLGHRRTMMLLAQMRRISLFSCLKDRHDFRFPQEEFDGNHFQKVQAIFLFYEMMQQTFNLFSTKNSSAAWDETLLEKFYIELFQQMNDLEACVMQEVGVEETPLMNVDSILAVRKYFQRITLYLTEKKYSPCAWEVVRAEIMRSFSFSTNLQKRLRRKE
Consider B2, for which the “Antiviral activity relative to huIFNα-2b (EC50 huIFN-alpha 2b/EC50 sample), EMCV/HuH-7 assay” value in test [1] was ≥ 10 fold relative to huIFNα-2b. In test [2], the “Antiproliferative activity relative to huIFNα-2b (EC50 huIFN-alpha 2b/EC50 sample), Daudi cell thymidine incorporation assay” value is ≤ 0.5 fold relative to huIFNα-2b.

B3: B9x18 (ligand)
chain: CDLPQTHSLGHRRTMMLLAQMRRISLFSCLKDRHDFRFPQEEFDGNQFQKTQAISVFHEMMQQTFNLFSTKNSSAAWDETLLEKFYIELFQQMNDLEACVMQEVGVEETPLMNVDSILAVRKYFQRITLYLTEKKYSPCAWEVVRAEIMRSFSFSTNLQKRLRRKE
Consider B3, for which the “Antiviral activity relative to huIFNα-2b (EC50 huIFN-alpha 2b/EC50 sample), EMCV/HuH-7 assay” value in test [1] was ≥ 10 fold relative to huIFNα-2b. The “Antiproliferative activity relative to huIFNα-2b (EC50 huIFN-alpha 2b/EC50 sample), Daudi cell thymidine incorporation assay” value in test [2] is ≤ 0.25 fold relative to huIFNα-2b.

B4: B9x12 (ligand)
chain: CDLPQTHSLGHRRTMMLLAQMRRISLFSCLKDRHDFRFPQEEFDGNQFQKVQAIFLFYEMMQQTFNLFSTKNSSAAWDETLLEKFYIELFQQMNDLEACVMQEVGVEETPLMNVDSILAVRKYFQRITLYLTKKKYSPCSWEVVRAEIMRSFSFSTNLQKRLRRKE
Take B4: the “Antiviral activity relative to huIFNα-2b (EC50 huIFN-alpha 2b/EC50 sample), EMCV/HuH-7 assay” value in test [1] was ≥ 10 fold relative to huIFNα-2b.

B5: B9x17 (ligand)
chain: CDLPQTHSLGHRRTMMLLAQMRRISLFSCLKDRHDFRFPQEEFDGNHFQKTQAISVFHEMMQQTFNLFSTKNSSAAWDETLLEKFYIELFQQMNDLEACVMQEVGVEETPLMNVDSILAVRKYFQRITLYLTEKKYSPCAWEVVRAEIMRSFSFSTNLQKRLRRKE
On to B5, for which the “Antiviral activity relative to huIFNα-2b (EC50 huIFN-alpha 2b/EC50 sample), EMCV/HuH-7 assay” value in test [1] is ≥ 10 fold relative to huIFNα-2b. For the same molecule, in test [2], the “Antiproliferative activity relative to huIFNα-2b (EC50 huIFN-alpha 2b/EC50 sample), Daudi cell thymidine incorporation assay” value is ≤ 0.5 fold relative to huIFNα-2b.

B6: B9x15 (ligand)
chain: CDLPQTHSLGHRRTMMLLAQMRRISLFSCLKDRHDFRFPQEEFDGNQFQKTQAISVFHEMMQQTFNLFSTKNSSAAWDETLLEKFYIELFQQMNDLEACVMQEVGVEETPLMNVDSILAVRKYFQRITLYLTKKKYSPCSWEVVRAEIMRSFSFSTNLQKRLRRKE
Consider B6, for which the “Antiviral activity relative to huIFNα-2b (EC50 huIFN-alpha 2b/EC50 sample), EMCV/HuH-7 assay” value in test [1] is ≥ 5 fold relative to huIFNα-2b. Also, in test [2], the “Antiproliferative activity relative to huIFNα-2b (EC50 huIFN-alpha 2b/EC50 sample), Daudi cell thymidine incorporation assay” value is ≤ 0.25 fold relative to huIFNα-2b.

B7: B9x16 (ligand)
chain: CDLPQTHSLGHRRTMMLLAQMRRISLFSCLKDRHDFRFPQEEFDGNQFQKVQAIFLFYEMMQQTFNLFSTKNSSAAWDETLLEKFYIELFQQMNDLEACVMQEVGVEETPLMNVDSILAVRKYFQRITLYLTEKKYSPCAWEVVRAEIMRSFSFSTNLQKRLRRKE
Turning to B7, the “Antiviral activity relative to huIFNα-2b (EC50 huIFN-alpha 2b/EC50 sample), EMCV/HuH-7 assay” value in test [1] was ≥ 10 fold relative to huIFNα-2b. Moreover, the “Antiproliferative activity relative to huIFNα-2b (EC50 huIFN-alpha 2b/EC50 sample), Daudi cell thymidine incorporation assay” value in test [2] was ≤ 0.25 fold relative to huIFNα-2b.

B8: B9x11 (ligand)
chain: CDLPQTHSLGHRRTMMLLAQMRRISLFSCLKDRHDFRFPQEEFDGNHFQKVQAIFLFYEMMQQTFNLFSTKNSSAAWDETLLEKFYIELFQQMNDLEACVMQEVGVEETPLMNVDSILAVRKYFQRITLYLTKKKYSPCSWEVVRAEIMRSFSFSTNLQKRLRRKE
For the molecule B8, the “Antiviral activity relative to huIFNα-2b (EC50 huIFN-alpha 2b/EC50 sample), EMCV/HuH-7 assay” value in test [1] was ≥ 10 fold relative to huIFNα-2b.

B9: IFN-alpha Con1 (ligand)
chain: CDLPQTHSLGNRRALILLAQMRRISPFSCLKDRHDFGFPQEEFDGNQFQKAQAISVLHEMIQQTFNLFSTKDSSAAWDESLLEKFYTELYQQLNDLEACVIQEVGVEETPLMNVDSILAVKKYFQRITLYLTEKKYSPCAWEVVRAEIMRSFSLSTNLQERLRRKE
B9: the “Antiviral activity relative to huIFNα-2b (EC50 huIFN-alpha 2b/EC50 sample), EMCV/HuH-7 assay” value in test [1] is ~2 fold relative to huIFNα-2b. For the same molecule, in test [2], the “Antiproliferative activity relative to huIFNα-2b (EC50 huIFN-alpha 2b/EC50 sample), Daudi cell thymidine incorporation assay” value was ~1.5 fold relative to huIFNα-2b.

B10: B9x27 (ligand)
chain: CDLPQTHSLSNRRTLMLMAQMRRISPFSCLKDRHDFGFPEEEFDGHQFQKVQAIFLLYELIQQTFNLFSTKNSSAAWDETLLEKFYIELFQQMNNLEACVIQEVGVEEIALMNVDSILAVRKYFRRITLYLTKKKYSPCSWEVVRAEIMRSFSFSTNLQKRLRRKE
In the case of B10, in test [1], the “Antiviral activity relative to huIFNα-2b (EC50 huIFN-alpha 2b/EC50 sample), EMCV/HuH-7 assay” value was ≥ 10 fold relative to huIFNα-2b. For the same molecule, the “Antiproliferative activity relative to huIFNα-2b (EC50 huIFN-alpha 2b/EC50 sample), Daudi cell thymidine incorporation assay” value in test [2] is ≤ 0.25 fold relative to huIFNα-2b.

B11: B9x21 (ligand)
chain: CDLPQTHSLSNRRTLMLMAQMRRISPFSCLKDRHDFGFPEEEFDGHQFQKTQAISVLHELIQQTFNLFSTKNSSAAWDETLLEKFYIELFQQMNNLEACVIQEVGVEEIALMNVDSILAVRKYFRRITLYLTEKKYSPCAWEVVRAEIMRSFSFSTNLQKRLRRKE
With B11, the “Antiviral activity relative to huIFNα-2b (EC50 huIFN-alpha 2b/EC50 sample), EMCV/HuH-7 assay” value in test [1] is ≥ 10 fold relative to huIFNα-2b. Besides, in test [2], the “Antiproliferative activity relative to huIFNα-2b (EC50 huIFN-alpha 2b/EC50 sample), Daudi cell thymidine incorporation assay” value is ≤ 0.5 fold relative to huIFNα-2b.

B12: B9x24 (ligand)
chain: CDLPQTHSLSNRRTLMLMAQMRRISPFSCLKDRHDFGFPEEEFDGHQFQKTQAISVLHELIQQTFNLFSTKNSSAAWDETLLEKFYIELFQQMNNLEACVIQEVGVEEIALMNVDSILAVRKYFRRITLYLTKKKYSPCSWEVVRAEIMRSFSFSTNLQKRLRRKE
On to B12, for which, in test [1], the “Antiviral activity relative to huIFNα-2b (EC50 huIFN-alpha 2b/EC50 sample), EMCV/HuH-7 assay” value was ≥ 5 fold relative to huIFNα-2b. Further, the “Antiproliferative activity relative to huIFNα-2b (EC50 huIFN-alpha 2b/EC50 sample), Daudi cell thymidine incorporation assay” value in test [2] is ≤ 0.25 fold relative to huIFNα-2b.

B13: B9x26 (ligand)
chain: CDLPQTHSLSNRRTLMLMAQMRRISPFSCLKDRHDFGFPEEEFDGHHFQKTQAISVLHELIQQTFNLFSTKNSSAAWDETLLEKFYIELFQQMNNLEACVIQEVGVEEIALMNVDSILAVRKYFRRITLYLTKKKYSPCSWEVVRAEIMRSFSFSTNLQKRLRRKE
On to B13, for which the “Antiviral activity relative to huIFNα-2b (EC50 huIFN-alpha 2b/EC50 sample), EMCV/HuH-7 assay” value in test [1] is ≥ 5 fold relative to huIFNα-2b. The “Antiproliferative activity relative to huIFNα-2b (EC50 huIFN-alpha 2b/EC50 sample), Daudi cell thymidine incorporation assay” value in test [2] is ≤ 0.25 fold relative to huIFNα-2b.

B14: B9x25 (ligand)
chain: CDLPQTHSLSNRRTLMLMAQMRRISPFSCLKDRHDFGFPEEEFDGHHFQKVQAIFLLYELIQQTFNLFSTKNSSAAWDETLLEKFYIELFQQMNNLEACVIQEVGVEEIALMNVDSILAVRKYFRRITLYLTEKKYSPCAWEVVRAEIMRSFSFSTNLQKRLRRKE
Consider B14, for which the “Antiviral activity relative to huIFNα-2b (EC50 huIFN-alpha 2b/EC50 sample), EMCV/HuH-7 assay” value in test [1] is ≥ 10 fold relative to huIFNα-2b. Moreover, the “Antiproliferative activity relative to huIFNα-2b (EC50 huIFN-alpha 2b/EC50 sample), Daudi cell thymidine incorporation assay” value in test [2] is ≤ 0.5 fold relative to huIFNα-2b.

B15: B9x22 (ligand)
chain: CDLPQTHSLSNRRTLMLMAQMRRISPFSCLKDRHDFGFPEEEFDGHHFQKTQAISVLHELIQQTFNLFSTKNSSAAWDETLLEKFYIELFQQMNNLEACVIQEVGVEEIALMNVDSILAVRKYFRRITLYLTEKKYSPCAWEVVRAEIMRSFSFSTNLQKRLRRKE
Take B15: the “Antiviral activity relative to huIFNα-2b (EC50 huIFN-alpha 2b/EC50 sample), EMCV/HuH-7 assay” value in test [1] was ≥ 10 fold relative to huIFNα-2b. The “Antiproliferative activity relative to huIFNα-2b (EC50 huIFN-alpha 2b/EC50 sample), Daudi cell thymidine incorporation assay” value in test [2] was ≤ 0.5 fold relative to huIFNα-2b.

B16: B9x23 (ligand)
chain: CDLPQTHSLSNRRTLMLMAQMRRISPFSCLKDRHDFGFPEEEFDGHQFQKVQAIFLLYELIQQTFNLFSTKNSSAAWDETLLEKFYIELFQQMNNLEACVIQEVGVEEIALMNVDSILAVRKYFRRITLYLTEKKYSPCAWEVVRAEIMRSFSFSTNLQKRLRRKE
For B16, the “Antiviral activity relative to huIFNα-2b (EC50 huIFN-alpha 2b/EC50 sample), EMCV/HuH-7 assay” value in test [1] was ≥ 10 fold relative to huIFNα-2b. Moreover, the “Antiproliferative activity relative to huIFNα-2b (EC50 huIFN-alpha 2b/EC50 sample), Daudi cell thymidine incorporation assay” value in test [2] is ≤ 0.5 fold relative to huIFNα-2b.

B17: B9x28 (ligand)
chain: CDLPQTHSLSNRRTLMLMAQMRRISPFSCLKDRHDFGFPEEEFDGHHFQKVQAIFLLYELIQQTFNLFSTKNSSAAWDETLLEKFYIELFQQMNNLEACVIQEVGVEEIALMNVDSILAVRKYFRRITLYLTKKKYSPCSWEVVRAEIMRSFSFSTNLQKRLRRKE
For the molecule B17, in test [1], the “Antiviral activity relative to huIFNα-2b (EC50 huIFN-alpha 2b/EC50 sample), EMCV/HuH-7 assay” value was ≥ 10 fold relative to huIFNα-2b.
